Measurements taken from the supplement of paper PMC12042874.
± gives the uncertainty stated by the source.

assay: amyloid nucleation score (Sup35N fusion, yeast selection) (log enrichment); library NNK1; higher = more nucleation; inactive = no reads after selection
Outline: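 The nucleation score equals the log enrichment of output over input reads from DiMSum, centred on the mode score of non-aggregating sequences. It was computed only for sequences with 100 or more input reads. The reads came from Illumina sequencing of plasmid inserts from psi-negative yeast expressing Sup35N fused to peptides of 20 random codons, induced with 100 μM copper sulfate for 24 hours and grown 7 days at 30°C without adenine and uracil.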

Row | Substance | amyloid nucleation score
1 | GLGCSSLCQLMN | 0.983 ± 0.56
2 | TDLLWKTSLLPNVY | 1.71 ± 0.36
3 | VALID | -0.215 ± 1.7
4 | LSLSMPYSGVLSELYAIATF | -0.384 ± 0.27
5 | AMIPNVRVYVVVITNISFCV | 0.736 ± 0.26
6 | DGTSPRQLKCMLKFLFDVWD | 2.94 ± 0.2
7 | ANSSFLYTSEHFRHVMAWFG | -0.075 ± 0.68
8 | VEGRRFDINAWRDWTKGVR | -0.238 ± 0.3
9 | RVVVQNI | 1.18 ± 0.97
10 | FFIRIVCLWG | 0.659 ± 0.42
11 | CGGTNILWVRSLPHGLDVHD | -0.204 ± 0.39
12 | LGVRINGTNVLDFF | 0.044 ± 0.27
13 | LKSYSTFVIRMNWLGDEGEL | -0.874 ± 0.8
14 | FRFLKEASKCKPVTVMSPSW | 0.123 ± 0.7
15 | LKCLLKHGFTRNG | -2.08 ± 2.7
16 | ELTNTFTV | -0.335 ± 0.37
17 | ICVMS | inactive
18 | VITNVRL | -0.089 ± 0.35
19 | SPVRIYTSRSIMRFNVRKPT | -0.306 ± 0.9
20 | YGYAAYVDMRSGL | -0.257 ± 0.33
21 | IWGDKIHGFHGVIMMQSGMV | -0.762 ± 0.71
22 | SQLFYAILSIHYWCVTFFRC | 0.642 ± 0.33

Row | Substance | amyloid nucleation score
23 | CVHLSKRCKLPVKIISLCLN | 0.767 ± 1
24 | INGFYCCRV | 0.787 ± 0.21
25 | KVDLLA | -0.13 ± 0.56
26 | TYYTVTEISHVGWTYFGYVR | -0.151 ± 0.64
27 | TADFLERRDMKYLHM | -0.361 ± 1.7
28 | HISGLPVWLSCSWFWPKRLL | 0.08 ± 0.32
29 | GGYGLYCDHRYVTTTWWHSS | 0.926 ± 0.66
30 | LRVHDHDRMSDKMRYCNPFC | 1.76 ± 0.42
31 | FNDHWSCRV | -0.095 ± 0.48
32 | STNLLDFVGKSYVNWKKFRT | 0.104 ± 0.42
33 | TAVTCLL | -0.175 ± 1.2
34 | NKQEQHFF | 0.052 ± 0.4
35 | RLYLDMSIRPSWASVRFSFG | -1.19 ± 1.9
36 | NKNTS | -0.45 ± 0.54
37 | LYLHNHGVWAYFKWCWGVRG | -0.257 ± 0.53
38 | VIMCNI | 0.068 ± 0.93
39 | SASYNFTSCFKFLRRKIVIK | 0.196 ± 0.24
40 | CSKVVSSVLVQL | -0.322 ± 0.45
41 | NNEPGLGEK | -0.598 ± 0.92
42 | IHWNWWIRLCGFPFAFYISG | 0.233 ± 0.32
43 | ETSVRMVFFVKRLTGYMNLR | -0.277 ± 0.33
44 | TFSHNIIRSCLTKESVSFP | inactive

Row | Substance | amyloid nucleation score
45 | QIYKVDGYFQVGILLLSPVP | -1.29 ± 0.95
46 | RGAPKLCTDIDWARYFNRGL | -0.407 ± 0.4
47 | SRIIGMSRCCIGHRYMYMKT | -0.598 ± 1.4
48 | GFIKPILEQGRYHNESRVLL | 0.243 ± 0.58
49 | PVLWASMVN | -0.243 ± 0.49
50 | FATQTVAACVQCLKTRSDVF | 0.029 ± 1.1
51 | ANSGTRIRFYICWFKSETTW | 1.87 ± 0.1
52 | HLLNMNSDLRTHCYVVWT | -0.264 ± 0.25
53 | FGFLLHGDDDQEGIVTGRGG | 0.384 ± 0.76
54 | SGNTSPCCVSKFDLPHSTGK | 0.245 ± 0.3
55 | VRCVICCFCIWLKAWWDYKR | 1.47 ± 0.45
56 | SNYSQLLVMEVLHLGYTIRR | -1.19 ± 0.91
57 | SDNIYVMAWCSCNAARSIVF | 0.616 ± 0.18
58 | VVAGNSAKEIYKFTGADTPY | -0.751 ± 0.57
59 | DNGLGKCSMQPEWHRAWGAR | 2.06 ± 0.13
60 | GCGGTGAFTVQGKRQFIAGR | -0.031 ± 0.27
61 | NCFIKDAMVMSSRMYSGNMI | inactive
62 | RCDNLF | 0.037 ± 0.39
63 | CGLERTCRRGPSELTCTLYE | -0.201 ± 0.56
64 | TYYSGDSAYLPIDAIMLVWY | -1.07 ± 0.65
65 | ATTALAMGGSNDTMGYGVRC | 0.006 ± 0.4
66 | NFAWYNSTQFITTCRVTYSE | 1.86 ± 0.17

Row | Substance | amyloid nucleation score
67 | KGKECKRFLVNTKIGSNRT | inactive
68 | GSSFVI | inactive
69 | WEWIQDVWVPHISDPLSWAI | -1.2 ± 0.83
70 | WNASMQSTGWFDILIYMCPV | 3.19 ± 0.11
71 | KQRIFEMLPWGPRPLYPVWG | 0.405 ± 0.43
72 | ARTKGSVAPTTLHANNGAWS | -0.053 ± 0.39
73 | LIAVQWASMRQAWNIC | 0.616 ± 1.2
74 | IIVFGSLEELVGAGLLGRLR | -0.106 ± 1.7
75 | TYNVLSTLWRFCVIVLRICC | 0.558 ± 1.1
76 | FPWTNLSDD | 0.04 ± 0.36
77 | GGTGMVGRDANTSFIFWDIV | -0.099 ± 0.36
78 | SVIFWMGRRMLLLACVPESA | -0.128 ± 0.81
79 | CKEINL | -0.374 ± 0.6
80 | NISVHDNNLFHVWNLMVDSG | 5.83 ± 0.061
81 | IGMQLMVKTSLRHYGMYHTA | 1.65 ± 0.44
82 | LFVDPL | 1.06 ± 0.88
83 | QNGRASVYFTGLAILYILID | 1.02 ± 0.25
84 | HSCTTLPL | -0.461 ± 0.79
85 | SVFRSSVCLLANDGVFSMNV | 0.355 ± 0.39
86 | AIYSPYRNLER | 0.233 ± 0.42
87 | NSREYDRATGNGGTEGKSVT | -0.45 ± 1.1
